Measurements: publication PMC9107221 (2022)

B1: Chikungunya/SL-CK1 E2 glycoprotein (natural protein)
chain: not shown

Assays:
Assay in all cases: SPR
TriNb-3C5 = TriNb-3C5 (alpaca)
BiNb-3C5 = BiNb-3C5 (alpaca)
TriNb-2E8 = TriNb-2E8 (alpaca)
BiNb-2E8 = BiNb-2E8 (alpaca)
[1] = biological target: B1

Binder	koff (TriNb-3C5) [s⁻¹]	koff (BiNb-3C5) [s⁻¹]	koff (TriNb-2E8) [s⁻¹]	koff (BiNb-2E8) [s⁻¹]	koff [1] [s⁻¹]
B1	0.00609	0.00549	0.00274	0.000352	
MoNb-3C5 (VHH) VHH: AVQLVESGGGLVQAGGSLRLSCAASGRSFSAYTMAWFRQAPGKEREWMASIVRSGGPTYYADSVKDRFTISRENARNTAYLQMNSLKPEDTAVYYCAADLGWTYSRSPELFGSWGQGTQVTVSS					0.00991
